Results taken from patent US20250388640A1 (SYNTHEKINE, published 2025).

Legend:
Assay in all cases: cell-based or functional assay
[1] = biological target: T1, hIL-12 receptor signaling complex (hIL-12Rβ1 and hIL-12Rβ2) (human, UniProt P42701 24-662; Q99665 24-862)
[2] = biological target: T1, hIL-12 receptor signaling complex …; remark: listed apart in the source
[3] = biological target: T1, hIL-12 receptor signaling complex …; remark: listed apart in the source
[4] = biological target: T1, hIL-12 receptor signaling complex …; remark: listed apart in the source

T1 sequence (Q99665 24-862, chain 2 of 2, other chains not shown): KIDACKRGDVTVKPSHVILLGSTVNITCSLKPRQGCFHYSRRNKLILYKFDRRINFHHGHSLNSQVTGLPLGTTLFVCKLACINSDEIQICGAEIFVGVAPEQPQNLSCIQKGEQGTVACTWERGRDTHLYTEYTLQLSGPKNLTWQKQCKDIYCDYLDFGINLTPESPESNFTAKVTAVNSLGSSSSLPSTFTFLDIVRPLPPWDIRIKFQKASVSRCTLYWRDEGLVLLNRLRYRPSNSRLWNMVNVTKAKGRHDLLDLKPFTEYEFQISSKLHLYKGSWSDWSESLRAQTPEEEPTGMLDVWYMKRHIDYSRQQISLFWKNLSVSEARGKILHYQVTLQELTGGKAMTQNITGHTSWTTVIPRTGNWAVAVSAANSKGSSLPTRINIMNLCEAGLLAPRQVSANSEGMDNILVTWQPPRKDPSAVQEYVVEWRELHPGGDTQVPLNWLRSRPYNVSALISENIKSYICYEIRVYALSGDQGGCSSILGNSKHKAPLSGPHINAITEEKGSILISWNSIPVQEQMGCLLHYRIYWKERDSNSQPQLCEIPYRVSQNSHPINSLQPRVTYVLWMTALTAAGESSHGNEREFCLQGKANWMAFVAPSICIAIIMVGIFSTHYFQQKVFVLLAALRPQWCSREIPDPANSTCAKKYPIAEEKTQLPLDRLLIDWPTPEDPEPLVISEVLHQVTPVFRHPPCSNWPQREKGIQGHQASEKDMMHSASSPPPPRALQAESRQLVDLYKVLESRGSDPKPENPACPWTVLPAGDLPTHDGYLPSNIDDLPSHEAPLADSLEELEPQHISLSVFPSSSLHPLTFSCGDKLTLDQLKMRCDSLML

Row | Binder | IFNy [%+] EC50, CD8+ T Cells [1] | IFNy [%+] EC50, CD56hi NK Cells [1] | IFNy [%+] Emax, CD8+ T Cells [1] | IFNy [%+] Emax, CD56hi NK Cells [1] | IFNy [gMFI] EC50, CD8+ T Cells [2] | IFNy [gMFI] EC50, CD56hi NK Cells [2] | IFNy [gMFI] Emax, CD8+ T Cells [2] | IFNy [gMFI] Emax, CD56hi NK Cells [2] | pSTAT4 [gMFI] EC50, CD8+ T Cells [3] | pSTAT4 [gMFI] EC50, CD56hi NK Cells [3] | pSTAT4 [gMFI] Emax, CD8+ T Cells [3] | pSTAT4 [gMFI] Emax, CD56hi NK Cells [3] | pSTAT4 [%+] EC50, CD8+ T Cells [4] | pSTAT4 [%+] EC50, CD56hi NK Cells [4] | pSTAT4 [%+] Emax, CD8+ T Cells [4] | pSTAT4 [%+] Emax, CD56hi NK Cells [4]
1 | human IL12 mutein, hIL-12p40 E81S, F82A with hIL-12p35-8X His (ligand) chain 1: IWELKKDVYVVELDWYPDAPGEMVVLTCDTPEEDGITWTLDQSSEVLGSGKTLTIQVKSAGDAGQYTCHKGGEVLSHSLLLLHKKEDGIWSTDILKDQKEPKNKTFLRCEAKNYSGRFTCWWLTTISTDLTFSVKSSRGSSDPQGVTCGAATLSAERVRGDNKEYEYSVECQEDSACPAAEESLPIEVMVDAVHKLKYENYTSSFFIRDIIKPDPPKNLQLKPLKNSRQVEVSWEYPDTWSTPHSYFSLTFCVQVQGKSKREKKDRVFTDKTSATVICRKNASISVRAQDRYYSSSWSEWASVPCS chain 2: RNLPVATPDPGMFPCLHHSQNLLRAVSNMLQKARQTLEFYPCTSEEIDHEDITKDKTSTVEACLPLELTKNESCLNSRETSFITNGSCLASRKTSFMMALCLSSIYEDLKMYQVEFKTMNAKLLMDPKRQIFLDQNMLAVIDELMQALNFNSETVPQKSSLEEPDFYKTKIKLCILLHAFRIRAVTIDRVMSYLNASGSHHHHHHHH | 0.101 nM | 0.014 nM | 69 %+ | 94.9 %+ | 0.21 nM | 0.73 nM | 11300 gMFI | 206000 gMFI |  |  |  |  |  |  |  | 
2 | human IL12 mutein, hIL-12p40 E81N, F82A with hIL-12p35-8X His (ligand) chain 1: IWELKKDVYVVELDWYPDAPGEMVVLTCDTPEEDGITWTLDQSSEVLGSGKTLTIQVKNAGDAGQYTCHKGGEVLSHSLLLLHKKEDGIWSTDILKDQKEPKNKTFLRCEAKNYSGRFTCWWLTTISTDLTFSVKSSRGSSDPQGVTCGAATLSAERVRGDNKEYEYSVECQEDSACPAAEESLPIEVMVDAVHKLKYENYTSSFFIRDIIKPDPPKNLQLKPLKNSRQVEVSWEYPDTWSTPHSYFSLTFCVQVQGKSKREKKDRVFTDKTSATVICRKNASISVRAQDRYYSSSWSEWASVPCS chain 2: RNLPVATPDPGMFPCLHHSQNLLRAVSNMLQKARQTLEFYPCTSEEIDHEDITKDKTSTVEACLPLELTKNESCLNSRETSFITNGSCLASRKTSFMMALCLSSIYEDLKMYQVEFKTMNAKLLMDPKRQIFLDQNMLAVIDELMQALNFNSETVPQKSSLEEPDFYKTKIKLCILLHAFRIRAVTIDRVMSYLNASGSHHHHHHHH | 0.195 nM | 0.022 nM | 68.2 %+ | 92.8 %+ | 0.43 nM | 0.6 nM | 11400 gMFI | 165000 gMFI |  |  |  |  |  |  |  | 
3 | human IL12 wild type (hIL-12p40 wild type with hIL-12p35-8X His) (ligand) chain 1: IWELKKDVYVVELDWYPDAPGEMVVLTCDTPEEDGITWTLDQSSEVLGSGKTLTIQVKEFGDAGQYTCHKGGEVLSHSLLLLHKKEDGIWSTDILKDQKEPKNKTFLRCEAKNYSGRFTCWWLTTISTDLTFSVKSSRGSSDPQGVTCGAATLSAERVRGDNKEYEYSVECQEDSACPAAEESLPIEVMVDAVHKLKYENYTSSFFIRDIIKPDPPKNLQLKPLKNSRQVEVSWEYPDTWSTPHSYFSLTFCVQVQGKSKREKKDRVFTDKTSATVICRKNASISVRAQDRYYSSSWSEWASVPCS chain 2: RNLPVATPDPGMFPCLHHSQNLLRAVSNMLQKARQTLEFYPCTSEEIDHEDITKDKTSTVEACLPLELTKNESCLNSRETSFITNGSCLASRKTSFMMALCLSSIYEDLKMYQVEFKTMNAKLLMDPKRQIFLDQNMLAVIDELMQALNFNSETVPQKSSLEEPDFYKTKIKLCILLHAFRIRAVTIDRVMSYLNASGSHHHHHHHH |  |  |  |  |  |  |  |  | 0.03 nM | 0.06 nM | 121000 gMFI | 37700 gMFI | 0.01 nM | 0.01 nM | 85 %+ | 91.4 %+
4 | human IL12 mutein, hIL-12p40 E81A, F82P with hIL-12p35-8X His (ligand) chain 1: IWELKKDVYVVELDWYPDAPGEMVVLTCDTPEEDGITWTLDQSSEVLGSGKTLTIQVKAPGDAGQYTCHKGGEVLSHSLLLLHKKEDGIWSTDILKDQKEPKNKTFLRCEAKNYSGRFTCWWLTTISTDLTFSVKSSRGSSDPQGVTCGAATLSAERVRGDNKEYEYSVECQEDSACPAAEESLPIEVMVDAVHKLKYENYTSSFFIRDIIKPDPPKNLQLKPLKNSRQVEVSWEYPDTWSTPHSYFSLTFCVQVQGKSKREKKDRVFTDKTSATVICRKNASISVRAQDRYYSSSWSEWASVPCS chain 2: RNLPVATPDPGMFPCLHHSQNLLRAVSNMLQKARQTLEFYPCTSEEIDHEDITKDKTSTVEACLPLELTKNESCLNSRETSFITNGSCLASRKTSFMMALCLSSIYEDLKMYQVEFKTMNAKLLMDPKRQIFLDQNMLAVIDELMQALNFNSETVPQKSSLEEPDFYKTKIKLCILLHAFRIRAVTIDRVMSYLNASGSHHHHHHHH |  |  |  |  |  |  |  |  | 2.87 nM | 8.04 nM | 94000 gMFI | 29600 gMFI | 0.71 nM | 1.15 nM | 79.7 %+ | 87.6 %+
5 | human IL12 mutein, hIL-12p40 E81G, F82A with hIL-12p35-8X His (ligand) chain 1: IWELKKDVYVVELDWYPDAPGEMVVLTCDTPEEDGITWTLDQSSEVLGSGKTLTIQVKGAGDAGQYTCHKGGEVLSHSLLLLHKKEDGIWSTDILKDQKEPKNKTFLRCEAKNYSGRFTCWWLTTISTDLTFSVKSSRGSSDPQGVTCGAATLSAERVRGDNKEYEYSVECQEDSACPAAEESLPIEVMVDAVHKLKYENYTSSFFIRDIIKPDPPKNLQLKPLKNSRQVEVSWEYPDTWSTPHSYFSLTFCVQVQGKSKREKKDRVFTDKTSATVICRKNASISVRAQDRYYSSSWSEWASVPCS chain 2: RNLPVATPDPGMFPCLHHSQNLLRAVSNMLQKARQTLEFYPCTSEEIDHEDITKDKTSTVEACLPLELTKNESCLNSRETSFITNGSCLASRKTSFMMALCLSSIYEDLKMYQVEFKTMNAKLLMDPKRQIFLDQNMLAVIDELMQALNFNSETVPQKSSLEEPDFYKTKIKLCILLHAFRIRAVTIDRVMSYLNASGSHHHHHHHH | 0.08 nM | 0.01 nM | 67.4 %+ | 93.8 %+ | 0.14 nM | 0.29 nM | 10700 gMFI | 181000 gMFI |  |  |  |  |  |  |  | 
6 | human IL12 mutein, hIL-12p40 E81R, F82A with hIL-12p35-8X His (ligand) chain 1: IWELKKDVYVVELDWYPDAPGEMVVLTCDTPEEDGITWTLDQSSEVLGSGKTLTIQVKRAGDAGQYTCHKGGEVLSHSLLLLHKKEDGIWSTDILKDQKEPKNKTFLRCEAKNYSGRFTCWWLTTISTDLTFSVKSSRGSSDPQGVTCGAATLSAERVRGDNKEYEYSVECQEDSACPAAEESLPIEVMVDAVHKLKYENYTSSFFIRDIIKPDPPKNLQLKPLKNSRQVEVSWEYPDTWSTPHSYFSLTFCVQVQGKSKREKKDRVFTDKTSATVICRKNASISVRAQDRYYSSSWSEWASVPCS chain 2: RNLPVATPDPGMFPCLHHSQNLLRAVSNMLQKARQTLEFYPCTSEEIDHEDITKDKTSTVEACLPLELTKNESCLNSRETSFITNGSCLASRKTSFMMALCLSSIYEDLKMYQVEFKTMNAKLLMDPKRQIFLDQNMLAVIDELMQALNFNSETVPQKSSLEEPDFYKTKIKLCILLHAFRIRAVTIDRVMSYLNASGSHHHHHHHH | 0.178 nM | 0.036 nM | 81.6 %+ | 94 %+ | 0.35 nM | 0.75 nM | 16300 gMFI | 156000 gMFI |  |  |  |  |  |  |  | 
7 | human IL12 mutein, hIL-12p40 E81V, F82A with hIL-12p35-8X His (ligand) chain 1: IWELKKDVYVVELDWYPDAPGEMVVLTCDTPEEDGITWTLDQSSEVLGSGKTLTIQVKVAGDAGQYTCHKGGEVLSHSLLLLHKKEDGIWSTDILKDQKEPKNKTFLRCEAKNYSGRFTCWWLTTISTDLTFSVKSSRGSSDPQGVTCGAATLSAERVRGDNKEYEYSVECQEDSACPAAEESLPIEVMVDAVHKLKYENYTSSFFIRDIIKPDPPKNLQLKPLKNSRQVEVSWEYPDTWSTPHSYFSLTFCVQVQGKSKREKKDRVFTDKTSATVICRKNASISVRAQDRYYSSSWSEWASVPCS chain 2: RNLPVATPDPGMFPCLHHSQNLLRAVSNMLQKARQTLEFYPCTSEEIDHEDITKDKTSTVEACLPLELTKNESCLNSRETSFITNGSCLASRKTSFMMALCLSSIYEDLKMYQVEFKTMNAKLLMDPKRQIFLDQNMLAVIDELMQALNFNSETVPQKSSLEEPDFYKTKIKLCILLHAFRIRAVTIDRVMSYLNASGSHHHHHHHH | 0.226 nM | 0.026 nM | 67.4 %+ | 94.6 %+ | 0.38 nM | 0.5 nM | 10600 gMFI | 194000 gMFI |  |  |  |  |  |  |  | 
8 | human IL12 mutein, hIL-12p40 E81L, F82A with hIL-12p35-8X His (ligand) chain 1: IWELKKDVYVVELDWYPDAPGEMVVLTCDTPEEDGITWTLDQSSEVLGSGKTLTIQVKLAGDAGQYTCHKGGEVLSHSLLLLHKKEDGIWSTDILKDQKEPKNKTFLRCEAKNYSGRFTCWWLTTISTDLTFSVKSSRGSSDPQGVTCGAATLSAERVRGDNKEYEYSVECQEDSACPAAEESLPIEVMVDAVHKLKYENYTSSFFIRDIIKPDPPKNLQLKPLKNSRQVEVSWEYPDTWSTPHSYFSLTFCVQVQGKSKREKKDRVFTDKTSATVICRKNASISVRAQDRYYSSSWSEWASVPCS chain 2: RNLPVATPDPGMFPCLHHSQNLLRAVSNMLQKARQTLEFYPCTSEEIDHEDITKDKTSTVEACLPLELTKNESCLNSRETSFITNGSCLASRKTSFMMALCLSSIYEDLKMYQVEFKTMNAKLLMDPKRQIFLDQNMLAVIDELMQALNFNSETVPQKSSLEEPDFYKTKIKLCILLHAFRIRAVTIDRVMSYLNASGSHHHHHHHH | 0.185 nM | 0.003 nM | 68 %+ | 94.8 %+ | 0.39 nM | 0.47 nM | 11500 gMFI | 223000 gMFI |  |  |  |  |  |  |  | 
